In PMC4960888 (2016):
Ends that are not written are not given here.

B1: AGuIX@PEG@LPFFD@Cy5.5 (peptide)
chain: LPFFD
modifications: also: conjugated to AGuIX nanoparticle via PEG, labelled with Cy5.5, attachment sites not given here

Target: Aβ(1-42) fibrils 1-42 (Homo sapiens, UniProt P05067)
Assay: SPR

Chain of Aβ(1-42) fibrils 1-42 (P05067 1-42): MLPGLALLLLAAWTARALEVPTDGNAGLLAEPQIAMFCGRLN

Binder	Kd [µM]
LPFFD [LPFFD peptide]	317
B1	261
